This is an account of results in patent publication US20120238503A1.

This assay concerns the target α3β1 integrin on PC12 cells (rat (PC12 cells)) (UniProt P49134). Kind of assay: cell-based or functional assay.

Ends that are not written are not given here.

Sequence of α3β1 integrin on PC12 cells (rat (PC12 cells)) (P49134 21-798): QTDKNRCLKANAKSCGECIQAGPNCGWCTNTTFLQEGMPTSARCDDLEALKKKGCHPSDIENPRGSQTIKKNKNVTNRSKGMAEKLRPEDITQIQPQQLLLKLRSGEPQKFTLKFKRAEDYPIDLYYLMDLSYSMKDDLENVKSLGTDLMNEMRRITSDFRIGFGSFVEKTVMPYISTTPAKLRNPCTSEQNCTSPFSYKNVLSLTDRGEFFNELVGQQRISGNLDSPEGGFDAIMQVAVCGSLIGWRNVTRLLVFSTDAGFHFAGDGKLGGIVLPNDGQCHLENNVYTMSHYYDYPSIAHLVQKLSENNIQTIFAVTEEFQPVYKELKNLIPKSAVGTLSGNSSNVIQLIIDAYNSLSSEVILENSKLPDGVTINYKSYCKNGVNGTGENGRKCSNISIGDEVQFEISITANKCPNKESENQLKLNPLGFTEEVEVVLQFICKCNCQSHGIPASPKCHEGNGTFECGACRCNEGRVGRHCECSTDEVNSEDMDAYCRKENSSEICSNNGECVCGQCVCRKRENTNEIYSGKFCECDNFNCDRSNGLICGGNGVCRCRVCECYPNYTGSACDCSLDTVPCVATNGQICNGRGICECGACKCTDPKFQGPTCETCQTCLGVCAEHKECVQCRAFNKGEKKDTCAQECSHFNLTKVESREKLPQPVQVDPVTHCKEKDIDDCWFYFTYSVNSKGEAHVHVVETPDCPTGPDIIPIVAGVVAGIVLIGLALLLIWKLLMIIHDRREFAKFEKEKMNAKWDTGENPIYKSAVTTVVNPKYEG

RNIPPFEGCIWN-NH2 [Ln2-LG3-P2 peptide (…)] displayed an inhibition of PC12 cell adhesion to coated rLG3 (25 µg/mL) by soluble peptide of 40 % inhibition.
